# Reference: patent US20020142976
# Tested on: IDH22
# Sequence of ATR (chain, as listed by the source): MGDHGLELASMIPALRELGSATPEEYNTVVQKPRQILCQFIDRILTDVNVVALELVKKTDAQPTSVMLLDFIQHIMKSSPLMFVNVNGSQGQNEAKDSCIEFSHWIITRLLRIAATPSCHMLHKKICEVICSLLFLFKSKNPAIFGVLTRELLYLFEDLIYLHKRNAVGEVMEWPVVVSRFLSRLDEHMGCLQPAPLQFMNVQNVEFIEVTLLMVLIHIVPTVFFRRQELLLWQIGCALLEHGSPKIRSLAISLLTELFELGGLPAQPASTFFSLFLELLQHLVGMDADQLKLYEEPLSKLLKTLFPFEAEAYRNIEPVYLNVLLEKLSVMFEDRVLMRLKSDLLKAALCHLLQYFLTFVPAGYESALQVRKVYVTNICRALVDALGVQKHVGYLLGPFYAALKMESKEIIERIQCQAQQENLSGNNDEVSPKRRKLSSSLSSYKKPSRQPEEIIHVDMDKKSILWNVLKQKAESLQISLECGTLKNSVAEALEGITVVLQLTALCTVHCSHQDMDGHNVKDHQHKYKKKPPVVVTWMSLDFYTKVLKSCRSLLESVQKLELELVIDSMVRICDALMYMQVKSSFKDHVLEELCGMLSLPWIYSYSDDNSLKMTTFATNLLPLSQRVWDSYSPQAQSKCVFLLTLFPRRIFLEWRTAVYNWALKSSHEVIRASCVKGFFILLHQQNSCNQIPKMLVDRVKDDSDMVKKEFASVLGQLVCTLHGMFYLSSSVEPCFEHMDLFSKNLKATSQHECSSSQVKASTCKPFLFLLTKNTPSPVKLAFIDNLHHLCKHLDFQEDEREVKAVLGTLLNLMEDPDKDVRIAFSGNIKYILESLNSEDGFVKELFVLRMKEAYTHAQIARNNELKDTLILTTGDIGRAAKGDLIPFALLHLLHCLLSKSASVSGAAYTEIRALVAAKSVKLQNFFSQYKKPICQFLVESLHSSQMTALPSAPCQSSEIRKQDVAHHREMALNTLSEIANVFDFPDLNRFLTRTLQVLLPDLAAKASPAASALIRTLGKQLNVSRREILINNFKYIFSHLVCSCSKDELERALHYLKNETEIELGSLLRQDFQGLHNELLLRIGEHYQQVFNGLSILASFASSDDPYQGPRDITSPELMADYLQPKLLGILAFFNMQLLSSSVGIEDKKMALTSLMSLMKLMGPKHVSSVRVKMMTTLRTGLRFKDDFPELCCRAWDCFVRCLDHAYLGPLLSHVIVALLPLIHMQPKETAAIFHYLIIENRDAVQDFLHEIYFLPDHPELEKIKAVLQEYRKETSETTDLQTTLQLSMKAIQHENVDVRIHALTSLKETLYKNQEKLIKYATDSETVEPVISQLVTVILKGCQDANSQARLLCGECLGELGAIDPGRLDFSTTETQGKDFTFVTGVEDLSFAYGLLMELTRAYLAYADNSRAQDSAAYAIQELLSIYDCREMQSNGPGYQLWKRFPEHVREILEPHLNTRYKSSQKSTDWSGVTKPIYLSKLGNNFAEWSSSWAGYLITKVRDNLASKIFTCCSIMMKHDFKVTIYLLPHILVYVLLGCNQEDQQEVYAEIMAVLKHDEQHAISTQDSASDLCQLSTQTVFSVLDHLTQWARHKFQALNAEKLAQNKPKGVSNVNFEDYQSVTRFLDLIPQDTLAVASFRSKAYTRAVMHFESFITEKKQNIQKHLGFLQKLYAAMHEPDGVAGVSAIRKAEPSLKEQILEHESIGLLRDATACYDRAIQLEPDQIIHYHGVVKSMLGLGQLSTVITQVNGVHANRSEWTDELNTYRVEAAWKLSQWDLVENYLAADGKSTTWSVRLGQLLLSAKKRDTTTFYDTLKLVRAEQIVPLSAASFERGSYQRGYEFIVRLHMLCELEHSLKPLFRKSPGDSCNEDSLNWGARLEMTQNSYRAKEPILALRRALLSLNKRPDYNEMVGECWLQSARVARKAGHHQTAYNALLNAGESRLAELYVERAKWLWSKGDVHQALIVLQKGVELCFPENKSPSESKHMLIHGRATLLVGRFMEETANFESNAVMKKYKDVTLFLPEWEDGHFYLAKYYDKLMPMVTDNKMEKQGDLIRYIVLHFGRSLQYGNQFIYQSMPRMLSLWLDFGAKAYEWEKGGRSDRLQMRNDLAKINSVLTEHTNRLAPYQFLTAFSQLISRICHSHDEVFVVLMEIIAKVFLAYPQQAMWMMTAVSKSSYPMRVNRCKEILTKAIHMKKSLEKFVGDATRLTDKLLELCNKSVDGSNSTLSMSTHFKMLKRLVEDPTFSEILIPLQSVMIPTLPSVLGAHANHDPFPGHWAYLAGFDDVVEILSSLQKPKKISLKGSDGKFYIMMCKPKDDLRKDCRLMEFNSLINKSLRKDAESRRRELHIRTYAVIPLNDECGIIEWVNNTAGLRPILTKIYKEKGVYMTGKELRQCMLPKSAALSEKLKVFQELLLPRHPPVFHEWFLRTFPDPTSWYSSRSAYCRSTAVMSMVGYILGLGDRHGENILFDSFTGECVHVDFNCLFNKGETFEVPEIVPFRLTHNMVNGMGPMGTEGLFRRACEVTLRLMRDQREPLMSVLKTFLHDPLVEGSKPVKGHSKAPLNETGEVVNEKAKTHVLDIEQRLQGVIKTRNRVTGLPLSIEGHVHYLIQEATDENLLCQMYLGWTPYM
substance,measurement,value
ATR,"phosphorylation of peptide substrate (32P kinase assay, plate-captured ATR)",ATR phosphorylated IDH22
